Experimental data from article PMC9482650, “Quantitative fragmentomics allow affinity mapping of interactomes” (Nature Communications, 2022).

What was measured:
Experiment in all cases: holdup assay
Design in all cases: key: below the threshold = too weak to quantify, mostly under pKd 3.1 to 4
[1] = target: FRMPD2_3, Q68DX3
[2] = target: T1, PDZD7_3, Q9H5P4
T1 sequence (Q9H5P4 857-944, limits assumed, looked up): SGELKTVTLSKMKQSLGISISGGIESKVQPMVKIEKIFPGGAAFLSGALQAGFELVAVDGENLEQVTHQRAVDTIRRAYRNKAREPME

[3] = target: GORASP1, Q9BQQ3
GORASP1, Q9BQQ3, sequence (Q9BQQ3 1-208): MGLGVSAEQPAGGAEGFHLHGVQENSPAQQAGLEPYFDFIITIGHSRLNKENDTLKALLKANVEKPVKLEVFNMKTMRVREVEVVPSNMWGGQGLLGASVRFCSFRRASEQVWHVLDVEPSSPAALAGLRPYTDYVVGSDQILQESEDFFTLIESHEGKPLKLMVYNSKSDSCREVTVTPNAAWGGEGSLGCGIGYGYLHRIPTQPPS

[4] = target: DLG4_3, P78352
DLG4_3, P78352, sequence (P78352 306-403): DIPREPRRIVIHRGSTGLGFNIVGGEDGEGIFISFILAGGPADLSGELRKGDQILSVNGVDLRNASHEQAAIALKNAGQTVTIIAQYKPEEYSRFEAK

[5] = target: T2, GRIP1_3, Q9Y3R0
T2 sequence (Q9Y3R0 247-346, limits assumed, looked up): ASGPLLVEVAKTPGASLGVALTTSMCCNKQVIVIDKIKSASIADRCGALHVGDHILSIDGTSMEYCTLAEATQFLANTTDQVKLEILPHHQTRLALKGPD

[6] = target: Inadl_2, Q8NI35
Inadl_2, Q8NI35, sequence (Q8NI35 238-335): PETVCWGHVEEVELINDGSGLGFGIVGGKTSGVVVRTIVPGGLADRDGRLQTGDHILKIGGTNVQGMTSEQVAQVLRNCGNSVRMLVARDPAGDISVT

[7] = target: T3, PCLO, Q9Y6V0
T3 sequence (Q9Y6V0 4491-4600, limits assumed, looked up): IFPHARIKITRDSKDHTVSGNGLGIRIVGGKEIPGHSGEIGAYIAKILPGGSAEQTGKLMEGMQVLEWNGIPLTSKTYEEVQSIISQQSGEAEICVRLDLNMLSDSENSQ

[8] = target: FRMPD2_2, Q68DX3
FRMPD2_2, Q68DX3, sequence (Q68DX3 944-1038): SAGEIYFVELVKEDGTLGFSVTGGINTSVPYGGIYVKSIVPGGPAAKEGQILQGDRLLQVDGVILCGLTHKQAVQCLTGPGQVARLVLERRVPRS

[9] = target: LNX1_1, Q8TBB1
LNX1_1, Q8TBB1, sequence (Q8TBB1 261-371): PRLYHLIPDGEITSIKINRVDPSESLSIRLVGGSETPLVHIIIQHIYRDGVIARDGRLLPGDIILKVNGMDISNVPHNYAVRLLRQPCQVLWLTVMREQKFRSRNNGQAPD

[10] = target: GRIP2_7, Q9C0E4
GRIP2_7, Q9C0E4, sequence (Q9C0E4 934-1023): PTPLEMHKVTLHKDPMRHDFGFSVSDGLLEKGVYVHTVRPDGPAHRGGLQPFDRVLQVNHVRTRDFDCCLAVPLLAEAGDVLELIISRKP

[11] = target: T4, GRIP1_4, Q9Y3R0
T4 sequence (Q9Y3R0 467-571, limits assumed, looked up): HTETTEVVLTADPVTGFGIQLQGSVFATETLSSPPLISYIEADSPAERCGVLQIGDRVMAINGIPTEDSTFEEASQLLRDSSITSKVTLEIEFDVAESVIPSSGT

[12] = target: T5, PDZD2_2, O15018
T5 sequence (O15018 329-429, limits assumed, looked up): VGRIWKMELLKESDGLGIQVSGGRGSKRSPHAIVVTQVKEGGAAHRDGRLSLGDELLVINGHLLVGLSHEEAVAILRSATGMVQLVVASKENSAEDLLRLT

[13] = target: T6, APBA1_2, Q02410
T6 sequence (Q02410 742-832, limits assumed, looked up): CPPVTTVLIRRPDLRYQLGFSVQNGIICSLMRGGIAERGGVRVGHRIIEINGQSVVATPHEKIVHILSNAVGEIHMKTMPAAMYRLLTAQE

[14] = target: LNX1_3, Q8TBB1
LNX1_3, Q8TBB1, sequence (Q8TBB1 500-596): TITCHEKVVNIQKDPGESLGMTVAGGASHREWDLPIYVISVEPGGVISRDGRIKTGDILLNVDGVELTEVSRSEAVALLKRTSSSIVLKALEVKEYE

[15] = target: LAP2, Q96RT1
LAP2, Q96RT1, sequence (Q96RT1 other isoform, or with tags, fused parts or gaps): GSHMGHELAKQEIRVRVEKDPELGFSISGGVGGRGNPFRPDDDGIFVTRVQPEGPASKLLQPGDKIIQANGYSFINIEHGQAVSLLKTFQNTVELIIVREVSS

[16] = target: T7, LIN7B, Q9HAP6
T7 sequence (Q9HAP6 88-185, limits assumed, looked up): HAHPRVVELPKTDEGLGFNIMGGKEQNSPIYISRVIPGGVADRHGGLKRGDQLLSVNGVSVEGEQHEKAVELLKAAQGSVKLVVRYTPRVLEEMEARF

[17] = target: DLG1_1, Q12959
[18] = target: T8, MPP7, Q5T2T1
T8 sequence (Q5T2T1 134-230, limits assumed, looked up): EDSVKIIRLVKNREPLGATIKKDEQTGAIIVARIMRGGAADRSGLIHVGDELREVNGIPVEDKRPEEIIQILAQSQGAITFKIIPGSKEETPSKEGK

[19] = target: FRMPD2_1, Q68DX3
FRMPD2_1, Q68DX3, sequence (Q68DX3 770-861): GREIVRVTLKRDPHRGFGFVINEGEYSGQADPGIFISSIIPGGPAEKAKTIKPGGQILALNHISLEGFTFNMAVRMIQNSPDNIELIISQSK

[20] = target: CASK, O14936
CASK, O14936, sequence (O14936 487-570): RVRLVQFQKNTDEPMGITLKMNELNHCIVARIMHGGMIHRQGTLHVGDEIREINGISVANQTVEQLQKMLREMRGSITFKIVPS

[21] = target: T9, MPP6, Q9NZW5
T9 sequence (Q9NZW5 125-219, limits assumed, looked up): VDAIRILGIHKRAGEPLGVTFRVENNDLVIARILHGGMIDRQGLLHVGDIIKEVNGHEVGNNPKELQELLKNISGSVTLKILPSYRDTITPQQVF

[22] = target: T10, NHERF3_4, Q5T2W1
T10 sequence (Q5T2W1 373-468, limits assumed, looked up): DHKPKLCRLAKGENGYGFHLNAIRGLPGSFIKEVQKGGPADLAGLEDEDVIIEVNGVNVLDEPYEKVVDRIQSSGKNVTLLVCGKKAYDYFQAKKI

[23] = target: T11, RADIL, Q96JH8
T11 sequence (Q96JH8 971-1071, limits assumed, looked up): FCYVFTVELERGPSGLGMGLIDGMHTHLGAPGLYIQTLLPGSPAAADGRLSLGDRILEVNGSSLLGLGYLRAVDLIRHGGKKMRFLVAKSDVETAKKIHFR

[24] = target: MAGI2_4, Q86UL8
MAGI2_4, Q86UL8, sequence (Q86UL8 772-865): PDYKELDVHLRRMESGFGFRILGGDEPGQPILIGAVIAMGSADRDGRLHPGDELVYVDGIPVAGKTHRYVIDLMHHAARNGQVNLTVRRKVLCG

[25] = target: GRIP2_6, Q9C0E4
GRIP2_6, Q9C0E4, sequence (Q9C0E4 648-740): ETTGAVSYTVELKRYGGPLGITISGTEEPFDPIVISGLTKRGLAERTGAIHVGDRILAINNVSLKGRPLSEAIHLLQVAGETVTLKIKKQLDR

[26] = target: GIPC2, Q8TF65
GIPC2, Q8TF65, sequence (Q8TF65 112-203): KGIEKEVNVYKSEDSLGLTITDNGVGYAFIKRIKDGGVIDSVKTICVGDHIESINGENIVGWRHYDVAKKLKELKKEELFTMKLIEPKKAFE

[27] = target: MAGI1_2, Q96QZ7
MAGI1_2, Q96QZ7, sequence (Q96QZ7 456-580): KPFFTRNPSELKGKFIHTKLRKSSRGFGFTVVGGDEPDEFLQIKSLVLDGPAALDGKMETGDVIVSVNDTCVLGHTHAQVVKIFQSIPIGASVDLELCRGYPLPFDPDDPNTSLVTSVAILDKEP

[28] = plain residues with an end cap or a label only (N-terminal biotin on a linker: gsgsgs; C-terminal amide)
[29] = plain residues with an end cap or a label only (N-terminal biotin on a linker: ttds)

FRMPD2_3, Q68DX3, sequence (Q68DX3 1073-1166): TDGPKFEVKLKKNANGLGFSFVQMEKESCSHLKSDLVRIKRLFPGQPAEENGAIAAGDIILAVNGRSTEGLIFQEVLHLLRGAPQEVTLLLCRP

## ELIQDTSTSFSTTREW [ARAP3_int, Q8WWN8]
[1]; [28]
  pKd: below the threshold
[2]; [28]
  pKd: below the threshold
[3]; [28]
  pKd: below the threshold
[4]; [28]
  pKd: below the threshold
[5]; [28]
  pKd: below the threshold
[6]; [28]
  pKd: below the threshold
[7]; [28]
  pKd: below the threshold
[8]; [28]
  pKd: below the threshold
[9]; [28]
  pKd: below the threshold
[10]; [28]
  pKd: below the threshold
[11]; [28]
  pKd: below the threshold
[12]; [28]
  pKd: below the threshold
[13]; [28]
  pKd: below the threshold
[14]; [28]
  pKd: below the threshold
[15]; [28]
  pKd: below the threshold
[16]; [28]
  pKd: 3.67
[17]; [28]
  pKd: below the threshold
[18]; [28]
  pKd: below the threshold
[19]; [28]
  pKd: below the threshold
[20]; [28]
  pKd: below the threshold
[21]; [28]
  pKd: 3.69
[22]; [28]
  pKd: below the threshold
[23]; [28]
  pKd: below the threshold
[24]; [28]
  pKd: below the threshold
[25]; [28]
  pKd: below the threshold
[26]; [28]
  pKd: below the threshold
[27]; [28]
  pKd: below the threshold

## GGPKEEESPV [SLC16A1, P53985]
[1]; [29]
  pKd: below the threshold
[2]; [29]
  pKd: below the threshold
[3]; [29]
  pKd: below the threshold
[4]; [29]
  pKd: below the threshold
[5]; [29]
  pKd: below the threshold
[6]; [29]
  pKd: below the threshold
[7]; [29]
  pKd: below the threshold
[8]; [29]
  pKd: 4.01
[9]; [29]
  pKd: below the threshold
[10]; [29]
  pKd: below the threshold
[11]; [29]
  pKd: below the threshold
[12]; [29]
  pKd: 4.75
[13]; [29]
  pKd: below the threshold
[14]; [29]
  pKd: below the threshold
[15]; [29]
  pKd: below the threshold
[16]; [29]
  pKd: below the threshold
[17]; [29]
  pKd: below the threshold
[18]; [29]
  pKd: below the threshold
[19]; [29]
  pKd: below the threshold
[20]; [29]
  pKd: below the threshold
[21]; [29]
  pKd: below the threshold
[22]; [29]
  pKd: below the threshold
[23]; [29]
  pKd: below the threshold
[24]; [29]
  pKd: below the threshold
[25]; [29]
  pKd: below the threshold
[26]; [29]
  pKd: below the threshold
[27]; [29]
  pKd: below the threshold
